{
  "source": "patent US20160015827A1",
  "key": {"[1]": {"molecular_target": "human folate receptor alpha (FRA) (human) (UniProt P15328)", "sequence (P15328 25-234 limits assumed)": "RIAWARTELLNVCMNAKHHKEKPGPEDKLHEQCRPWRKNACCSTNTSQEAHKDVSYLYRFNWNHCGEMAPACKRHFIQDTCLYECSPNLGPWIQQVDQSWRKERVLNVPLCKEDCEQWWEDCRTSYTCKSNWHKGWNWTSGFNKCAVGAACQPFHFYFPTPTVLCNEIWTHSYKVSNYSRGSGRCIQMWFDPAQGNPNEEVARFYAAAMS", "assay": "flow cytometry on OVCAR-3B cells, secondary antibody alone (background)"}, "[2]": {"molecular_target": "human folate receptor alpha (FRA) (human) (UniProt P15328)", "assay": "flow cytometry on SK-OV-3 cells, secondary antibody alone (background)"}, "[3]": {"molecular_target": "human folate receptor alpha (FRA) (human) (UniProt P15328)", "assay": "flow cytometry on NCI-H292 cells, secondary antibody alone (background)"}, "[4]": {"molecular_target": "human folate receptor alpha (FRA) (human) (UniProt P15328)", "assay": "flow cytometry on NCI-H2110 cells, secondary antibody alone (background)"}, "[5]": {"molecular_target": "human folate receptor alpha (FRA) (human) (UniProt P15328)", "assay": "flow cytometry on OVCAR-3 cells, 10 µg/mL"}, "[6]": {"molecular_target": "human folate receptor alpha (FRA) (human) (UniProt P15328)", "assay": "flow cytometry on SK-OV-3 cells, 10 µg/mL"}, "[7]": {"molecular_target": "human folate receptor alpha (FRA) (human) (UniProt P15328)", "assay": "flow cytometry on NCI-H2110 cells, 10 µg/mL"}, "[8]": {"molecular_target": "human folate receptor alpha (FRA) (human) (UniProt P15328)", "assay": "flow cytometry on NCI-H292 cells, 10 µg/mL"}},
  "note": "“And” between values parts separate entries of the source, which are not always exact repeats. Equal values may be shown once.",
  "data": [
    {"substance": "goat F(ab')2-anti-human IgG (H+L)-RPE or goat anti-human IgG-RPE (antibody)", "values": [
      {"measurement": "MFI", "setting": "[1]", "value": 5, "unit": "MFI"},
      {"measurement": "MFI", "setting": "[2]", "value": "6 MFI and 5 MFI"},
      {"measurement": "MFI", "setting": "[3]", "value": 6, "unit": "MFI"},
      {"measurement": "MFI", "setting": "[4]", "value": 5, "unit": "MFI"}
    ]},
    {"substance": "isotype control antibody human IgG", "values": [
      {"measurement": "MFI", "setting": "[5]", "value": 7, "unit": "MFI"},
      {"measurement": "MFI", "setting": "[6]", "value": 6, "unit": "MFI"},
      {"measurement": "MFI", "setting": "[7]", "value": 5, "unit": "MFI"},
      {"measurement": "MFI", "setting": "[8]", "value": 6, "unit": "MFI"}
    ]}
  ]
}
